Results: patent US20260337278 (published 2026)
Where a chain is given by its changes, count along the chain named.

B1: SI-95X26 (antibody)
chain 1: not shown
chain 2: DILMTQSPSSMSVSLGDTVSITCHSSQDINSNIGWLQQRPGKSFKGLIYHGTNLDDEVPSRFSGSGSGADYSLTISSLESEDFADYYCVQYAQFPWTFGGGTKLEIKGGGGSGGGGSGGGGSDVQLQESGPSLVKPSQSLSLTCTVTGYSITSDFAWNWIRQFPGNKLEWMGYISYSGNTRYNPSLKSRISITRDTSKNQFFLQLNSVTIEDTATYYCVTAGRGFPYWGQGTLVTVSASGSGSGGGGGSGGGGSGGGGSDIQMTQSPSSLSASVGDRVTITCRSSQNIVHSNGNTYLDWYQQTPGKAPKLLIYKVSNRFSGVPSRFSGSGSGTDFTFTISSLQPEDIATYYCFQYSHVPWTFGQGTKLQITRTVAAPSVFIFPPSDEQLKSGTASVVCLLNNFYPREAKVQWKVDNALQSGNSQESVTEQDSKDSTYSLSSTLTLSKADYEKHKVYACEVTHQGLSSPVTKSFNRGEC
B2: SI-95X19 (antibody)
chain 1: not shown
chain 2: DIQMTQSPSSLSASVGDRVTITCRSSQNIVHSNGNTYLDWYQQTPGKAPKLLIYKVSNRFSGVPSRFSGSGSGTDFTFTISSLQPEDIATYYCFQYSHVPWTFGQGTKLQITRTVAAPSVFIFPPSDEQLKSGTASVVCLLNNFYPREAKVQWKVDNALQSGNSQESVTEQDSKDSTYSLSSTLTLSKADYEKHKVYACEVTHQGLSSPVTKSFNRGEC
B3: SI-95X17 (antibody)
chain 1: not shown
chain 2: B2 chain 2
B4: SI-95X2 (antibody)
chain 1: not shown
chain 2: B2 chain 2
B5: SI-95X22 (antibody)
chain 1: not shown
chain 2: B2 chain 2
B6: SI-95X55 (antibody)
chain 1: not shown
chain 2: DIVMTQSPSSVSLSLGDRVTITCHSSQDINSNIGWLQQKPGKAFKGLIYHGTNLDDGVPSRFSGSGSGADYTLTISSLQAEDFATYYCVQYAQFPWTFGPGTKLEIKRTVAAPSVFIFPPSDEQLKSGTASVVCLLNNFYPREAKVQWKVDNALQSGNSQESVTEQDSKDSTYSLSSTLTLSKADYEKHKVYACEVTHQGLSSPVTKSFNRGEC
B7: SI-95X41 (antibody)
chain 1: not shown
chain 2: DILMTQSPSSMSVSLGDTVSITCHSSQDINSNIGWLQQRPGKSFKGLIYHGTNLDDEVPSRFSGSGSGADYSLTISSLESEDFADYYCVQYAQFPWTFGGGTKLEIKRTVAAPSVFIFPPSDEQLKSGTASVVCLLNNFYPREAKVQWKVDNALQSGNSQESVTEQDSKDSTYSLSSTLTLSKADYEKHKVYACEVTHQGLSSPVTKSFNRGEC
B8: ABT-806 V7 (antibody, V domains shown)
VH: QVQLQESGPSLVKPSQTLSLTCTVSGYSITSDFAWNWIRQFPGRKLEWMGYISYSGNTRYNPSLKSRFTISRDTSKNQFYLKLRSVTIADTAVYYCVTAGRGFPYWGQGTLVTVSS
VL: DIQMTQSPSSVSASVGDRVTITCHSSQDINSNIGWLQQKPGKAPKGLIYHGTNLDDGVPSRFSGSGSGADYTLTISSLQPEDFATYYCVQYAQFPWTFGQGTKVEIKR
B9: ABT-806 V4 (antibody, V domains shown)
VH: B8 VH with S10G, T17S, F41A, R44K, K45G, M49V, K82Q, R84N, I88A, A89E
VL: B8 VL
B10: ABT-806 V5 (antibody, V domains shown)
VH: B8 VH with S10G, T17S, F41A, R44K, K45G, M49V, K82Q, R84N, I88A, A89E
VL: B8 VL with Q3V, V11L, A13V, V15P, Q79E, T85V
B11: ABT-806 V1 (antibody, V domains shown)
VH: QVQLQESGPGLVKPSQSLSLTCTVSGYSITSDFAWNWIRQPPGKGLEWIGYISYSGNTRYNPSLKSRVTISRDTSKNQFSLQLNSVTAEDTAVYYCVTAGRGFPYWGQGTLVTVSS
VL: B8 VL
B12: ABT-806 V8 (antibody, V domains shown)
VH: B8 VH
VL: B8 VL with Q3V, V11L, A13V, V15P, Q79E, T85V
B13: ABT-806 V6 (antibody, V domains shown)
VH: B11 VH with P41A, I49V, V68F, S80Y
VL: B8 VL with Q3V, A13L, V15L, P44F, P80A, Q100P, V104L
B14: ABT-806 V3 (antibody, V domains shown)
VH: B11 VH
VL: B8 VL with Q3V, A13L, V15L, P44F, P80A, Q100P, V104L
B15: ABT-806 V9 (antibody, V domains shown)
VH: B8 VH
VL: B8 VL with Q3V, A13L, V15L, P44F, P80A, Q100P, V104L
B16: ABT-806 V2 (antibody, V domains shown)
VH: B11 VH
VL: B8 VL with Q3V, V11L, A13V, V15P, Q79E, T85V

Biological target: T1, EGFR (wild-type, His-tagged or biotinylated) (human, UniProt P00533)
Test: BLI

| Kd [nM] | Binder |
| --- | --- |
| 9.35 | B1 |
| 5.01 | B2 |
| 6.02 | B3 |
| 5.53 | B4 |
| 6.1 | B5 |

Biological target: T2, EGFRvIII (human, UniProt P00533)
Test: BLI

| Kd [nM] | Binder |
| --- | --- |
| 7.67 | B6 |
| 15.9 | B7 |

Biological target: T2, EGFRvIII
Test: BLI
Remark: another data set of the same source

| Kd [nM] | Binder |
| --- | --- |
| 0.281 | B1 |
| 0.676 | B2 |
| 0.642 | B3 |
| 1.15 | B4 |
| 0.834 | B5 |

Biological target: T2, EGFRvIII
Test: BLI
Remark: another data set of the same source

| Kd [nM] | Binder |
| --- | --- |
| 37.8 | B8 |
| 23.2 | B9 |
| 30.7 | B10 |
| 29.5 | B11 |
| 31.9 | B12 |
| 18.4 | B13 |
| 15.4 | B14 |
| 16.1 | B15 |
| 26.6 | B16 |

Biological target: T1, EGFR (wild-type, His-tagged or …)
Test: BLI
Remark: another data set of the same source

| binding result | Binder |
| --- | --- |
| no binding | B6 |
| no binding | B7 |
